Tests used:
[1] = tested on: primary human cell cultures (11 cell types); assay: Custom gene array, 11 human cell types in normoxia or hypoxia for 6 hr and 18 hr; type: cell-based;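 as to mRNA expression level, #1 HY 18 hr: cell type #1 is adipocyte from subcutaneous adult adipose tissue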;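 as to mRNA expression level, #1 HY 6 hr: cell type #1 is adipocyte from subcutaneous adult adipose tissue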;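 as to mRNA expression level, #1 NO: cell type #1 is adipocyte from subcutaneous adult adipose tissue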;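 as to mRNA expression level, #2 HY 18 hr: cell type #2 is fetal cardiomyocyte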;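 as to mRNA expression level, #2 HY 6 hr: cell type #2 is fetal cardiomyocyte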;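 as to mRNA expression level, #2 NO: cell type #2 is fetal cardiomyocyte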;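 as to mRNA expression level, #3 HY 6 hr: cell type #3 is human umbilical vein endothelial cells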;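 as to mRNA expression level, #3 NO: cell type #3 is human umbilical vein endothelial cells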;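 as to mRNA expression level, #4 HY 18 hr: cell type #4 is adult dermal fibroblast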;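 as to mRNA expression level, #4 HY 6 hr: cell type #4 is adult dermal fibroblast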;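 as to mRNA expression level, #4 NO: cell type #4 is adult dermal fibroblast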;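 as to mRNA expression level, #5 HY 6 hr: cell type #5 is adult hepatocyte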;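 as to mRNA expression level, #5 NO: cell type #5 is adult hepatocyte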;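 as to mRNA expression level, #6 HY 6 hr: cell type #6 is blood-derived macrophage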;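 as to mRNA expression level, #6 NO: cell type #6 is blood-derived macrophage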
Outline: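 Values are each gene's expression relative to its median over all cell types and conditions, after per-array normalisation to control genes and merging of replicate arrays. Cells were 11 human types, mostly unmodified primary cultures, kept in normoxia or exposed to hypoxia for 6 hr or 18 hr.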

human macrophages = assay: Custom gene array, macrophages with no cytokines, IL-10 or LPS + IFN, in normoxia and hypoxia; type: cell-based; details: Table 16, referenced to median of the gene over 6 conditions
Outline: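 Cultured macrophages were left untreated or given IL-10 or LPS + IFN, each at 100 ng/ml final, for 6 hr under normoxia or hypoxia (0.1% oxygen). Six conditions in total.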

[2] = tested on: human breast and ovary tumors; assay: Custom gene array, breast and ovary tumors versus normal adjacent tissue; details: Table 19
Outline: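 Values are per-gene relative to that gene's median across the series, after per-chip normalisation for labelling and hybridization efficiency. Samples: breast and ovary tumors with normal tissue from 5 patients of varied diagnoses, mostly from the same individual (one age-matched separate donor), compared within patient.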

B1: p1E4 (nucleic acid, listed as Homo Sapiens)
DNA: AATTATATATTACATGTTTATTAAGAGCACAACTTTTATGTAAAATTTACATTTAATGAAAAAAATCAAAAATATTTACAAAATCTTGGAAGACAGATGTGCATTGTTCTAATTACAATCCAAAGTAGTAAATAACAATCCTTTAAAACTCACATTTATTAGAGTTGTGTTTACAAATTCTTGGTTAAAGAGGCAGCTACAAAGTTTACCACTATATATAAGCAAGAACCAGCTTGCTAGGTACATTTCCCATTGAAAATCTACTGGTCTCTTTTACACCATTAGTGGATTTTTAAATGGAAAAAAAAAATCAATATAAACTCATATGGCTTCAAAATTGTA
modifications: EST array clone
**Q.** With B1 as the molecule, how does the “mRNA expression level, #1 HY 6 hr” value ([1]; cell type #1, hypoxia 6 hr) read?
**A.** 0.51

**Q.** And the “mRNA expression level, #1 HY 18 hr” value ([1]; cell type #1, hypoxia 18 hr)?
**A.** 0.79

**Q.** And the “mRNA expression level, #1 NO” value ([1]; cell type #1, normoxia)?
**A.** 0.65

**Q.** And the “mRNA expression level, #2 HY 6 hr” value ([1]; cell type #2, hypoxia 6 hr)?
**A.** 1.24

**Q.** And the “mRNA expression level, #2 HY 18 hr” value ([1]; cell type #2, hypoxia 18 hr)?
**A.** 1.18

**Q.** What about the “mRNA expression level, #2 NO” value ([1]; cell type #2, normoxia) of the same molecule?
**A.** 1.06

**Q.** What about the “mRNA expression level, #3 HY 6 hr” value ([1]; cell type #3, hypoxia 6 hr) of the same molecule?
**A.** 1.57

**Q.** And the “mRNA expression level, #3 HY 18 hr” value ([1]; cell type #3, hypoxia 18 hr)?
**A.** 1.70

**Q.** What about the “mRNA expression level, #3 NO” value ([1]; cell type #3, normoxia) of the same molecule?
**A.** 1.59

**Q.** And the “mRNA expression level, #4 HY 6 hr” value ([1]; cell type #4, hypoxia 6 hr)?
**A.** 0.76

**Q.** And the “mRNA expression level, #4 HY 18 hr” value ([1]; cell type #4, hypoxia 18 hr)?
**A.** 0.91

**Q.** And the “mRNA expression level, #4 NO” value ([1]; cell type #4, normoxia)?
**A.** 0.80

**Q.** And the “mRNA expression level, #5 HY 6 hr” value ([1]; cell type #5, hypoxia 6 hr)?
**A.** 0.39

**Q.** What about the “mRNA expression level, #5 NO” value ([1]; cell type #5, normoxia) of the same molecule?
**A.** 0.34

**Q.** What about the “mRNA expression level, #6 HY 6 hr” value ([1]; cell type #6, hypoxia 6 hr) of the same molecule?
**A.** 1.13

**Q.** What about the “#6 HY 18 hr (mRNA expression level)” value ([1]; cell type #6, hypoxia 18 hr) of the same molecule?
**A.** 1.21

**Q.** What about the “mRNA expression level, #6 NO” value ([1]; cell type #6, normoxia) of the same molecule?
**A.** 0.97

**Q.** And the “#7 HY 6 hr (mRNA expression level)” value ([1]; cell type #7, hypoxia 6 hr)?
**A.** 1.17

**Q.** And the “#7 HY 18 hr (mRNA expression level)” value ([1]; cell type #7, hypoxia 18 hr)?
**A.** 0.82

**Q.** What about the “#7 NO (mRNA expression level)” value ([1]; cell type #7, normoxia) of the same molecule?
**A.** 1.65

**Q.** What about the “#8 HY 6 hr (mRNA expression level)” value ([1]; cell type #8, hypoxia 6 hr) of the same molecule?
**A.** 1.28

**Q.** And the “#8 HY 18 hr (mRNA expression level)” value ([1]; cell type #8, hypoxia 18 hr)?
**A.** 1.71

**Q.** And the “#8 NO (mRNA expression level)” value ([1]; cell type #8, normoxia)?
**A.** 0.74

**Q.** What about the “#9 HY 6 hr (mRNA expression level)” value ([1]; cell type #9, hypoxia 6 hr) of the same molecule?
**A.** 0.97

**Q.** What about the “#9 HY 18 hr (mRNA expression level)” value ([1]; cell type #9, hypoxia 18 hr) of the same molecule?
**A.** 0.93

**Q.** What about the “#9 NO (mRNA expression level)” value ([1]; cell type #9, normoxia) of the same molecule?
**A.** 0.95

**Q.** And the “#10 HY 6 hr (mRNA expression level)” value ([1]; cell type #10, hypoxia 6 hr)?
**A.** 1.35

**Q.** And the “#10 HY 18 hr (mRNA expression level)” value ([1]; cell type #10, hypoxia 18 hr)?
**A.** 1.44

**Q.** What about the “#10 NO (mRNA expression level)” value ([1]; cell type #10, normoxia) of the same molecule?
**A.** 0.78

**Q.** What about the “#11 HY 6 hr (mRNA expression level)” value ([1]; cell type #11, hypoxia 6 hr) of the same molecule?
**A.** 1.48

**Q.** And the “#11 HY 18 hr (mRNA expression level)” value ([1]; cell type #11, hypoxia 18 hr)?
**A.** 1.35

**Q.** And the “#11 NO (mRNA expression level)” value ([1]; cell type #11, normoxia)?
**A.** 1.30

**Q.** And the “HIGHEST FOLD CHANGE IN HYPOXIA (hr hypoxia + cell type)” value ([1]; hypoxia/normoxia induction ratio, 18 hr monocyte)?
**A.** 2.31 (18 hr monocyte) fold

**Q.** What about the “mRNA EXPRESSION (experimental condition) #1” value (human macrophages; #1 no cytokines/normoxia) of the same molecule?
**A.** 1.22

**Q.** And the “mRNA EXPRESSION (experimental condition) #2” value (human macrophages; #2 no cytokines/hypoxia)?
**A.** 1.13

**Q.** And the “mRNA EXPRESSION (experimental condition) #3” value (human macrophages; #3 IL-10/normoxia)?
**A.** 1.09

**Q.** And the “mRNA EXPRESSION (experimental condition) #4” value (human macrophages; #4 IL-10/hypoxia)?
**A.** 0.96

**Q.** And the “mRNA EXPRESSION (experimental condition) #5” value (human macrophages; #5 LPS/IFN/normoxia)?
**A.** 0.40

**Q.** And the “mRNA EXPRESSION (experimental condition) #6” value (human macrophages; #6 LPS/IFN/hypoxia)?
**A.** 0.40

**Q.** What about the “gene expression level on custom gene array, Breast nor H” value ([2]; breast, normal adjacent tissue, patient H) of the same molecule?
**A.** 1.00

**Q.** And the “gene expression level on custom gene array, Breast nor K” value ([2]; breast, normal adjacent tissue, patient K)?
**A.** 1.06

**Q.** And the “gene expression level on custom gene array, Breast tum H” value ([2]; breast, tumor tissue, patient H)?
**A.** 0.69

**Q.** And the “gene expression level on custom gene array, Breast tum K” value ([2]; breast, tumor tissue, patient K)?
**A.** 0.46

**Q.** And the “gene expression level on custom gene array, Ovary nor E” value ([2]; ovary, normal adjacent tissue, patient E)?
**A.** 1.30

**Q.** And the “gene expression level on custom gene array, Ovary nor F” value ([2]; ovary, normal adjacent tissue, patient F)?
**A.** 0.88

**Q.** What about the “gene expression level on custom gene array, Ovary nor G” value ([2]; ovary, normal adjacent tissue, patient G) of the same molecule?
**A.** 0.70

**Q.** And the “gene expression level on custom gene array, Ovary tum E” value ([2]; ovary, tumor tissue, patient E)?
**A.** 1.67

**Q.** And the “gene expression level on custom gene array, Ovary tum F” value ([2]; ovary, tumor tissue, patient F)?
**A.** 0.65

**Q.** What about the “gene expression level on custom gene array, Ovary tum G” value ([2]; ovary, tumor tissue, patient G) of the same molecule?
**A.** 0.17

From patent publication US20030203372A1, “Analysis method” (priority 2000, published 2003)
